Assay results published in PMC6777427, “Large-Scale Molecular Evolutionary Analysis Uncovers a Variety of Polynucleotide Kinase Clp1 Family Proteins in the Three Domains of Life” (Genome Biology and Evolution, 2019).

Tested on: T1, Nc1ncnc2c1ncn2[C@@H]1O[C@H](COP(=O)(O)OP(=O)(O)OP(=O)(O)O)[C@@H](O)[C@H]1O
T1 construct: codon-optimised synthetic gene in pET-23b (NdeI/XhoI), C-terminal His6 tag kept, expressed in E. coli BL21(DE3), heat-treated at 60 °C, HisTrap; approx. 27 kDa by SDS-PAGE
Test: purified protein
Assay type: biochemical, Thermus scotoductus
Conditions: ssRNA oligonucleotide (5'-R20-FAM-3') as co-substrate, 10 mM MgCl2, pH 8.0, 60 °C, ATP 0.1-50 µM

Substance: Ts-Clp1 (Thermus scotoductus SA-01)
- Km: 2.5 µM
